{"source": "patent US20110008829", "proteins": {"B1": {"name": "HMGR with an N-terminal SH3 domain (protein)", "chain": "AEYVRALFDFNGNDEEDLPFKKGDILRIRDKPEEQWWNAEDSEGKRGMIPVPYVEKYRVLTNKTVISGSKVKSLSSAQSSSSGPSSSSEEDDSRDIESLDKKIRPLEELEALLSSGNTKQLKNKEVAALVIHGKLPLYALEKKLGDTTRAVAVRRKALSILAEAPVLASDRLPYKNYDYDRVFGACCENVIGYMPLPVGVIGPLVIDGTSYHIPMATTEGCLVASAMRGCKAINAGGGATTVLTKDGMTRGPVVRFPTLKRSGACKIWLDSEEGQNAIKKAFNSTSRFARLQHIQTCLAGDLLFMRFRTTTGDAMGMNMISKGVEYSLKQMVEEYGWEDMEVVSVSGNYCTDKKPAAINWIEGRGKSVVAEATIPGDVVRKVLKSDVSALVELNIAKNLVGSAMAGSVGGFNAHAANLVTAVFLALGQDPAQNVESSNCITLMKEVDGDLRISVSMPSIEVGTIGGGTVLEPQGAMLDLLGVRGPHATAPGTNARQLARIVACAVLAGELSLCAALAAGHLVQSHMTHNRKPAEPTKPNNLDATDINRLKDGSVTCIKS"}}, "key": {"[1]": {"target": "T1, HMGS with 12 SH3 peptide ligands recombined to the C-terminus, P54839", "T1 sequence (P54839 whole entry, looked up)": "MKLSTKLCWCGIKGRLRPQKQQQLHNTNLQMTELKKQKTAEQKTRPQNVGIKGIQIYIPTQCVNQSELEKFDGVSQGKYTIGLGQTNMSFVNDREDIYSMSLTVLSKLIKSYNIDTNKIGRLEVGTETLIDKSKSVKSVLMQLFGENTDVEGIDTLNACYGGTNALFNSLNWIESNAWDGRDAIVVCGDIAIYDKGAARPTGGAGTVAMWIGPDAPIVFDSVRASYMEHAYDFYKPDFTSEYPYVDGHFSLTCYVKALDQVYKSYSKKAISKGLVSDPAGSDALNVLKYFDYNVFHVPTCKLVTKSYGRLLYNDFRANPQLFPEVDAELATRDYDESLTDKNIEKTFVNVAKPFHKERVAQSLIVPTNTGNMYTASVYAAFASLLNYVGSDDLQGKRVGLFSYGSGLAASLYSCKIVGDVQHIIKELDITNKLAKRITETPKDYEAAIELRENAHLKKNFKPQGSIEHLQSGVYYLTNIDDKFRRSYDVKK"}, "[2]": {"target": "T2, HMGS with 6 SH3 peptide ligands recombined to the C-terminus, P54839", "T2 sequence (P54839 whole entry, looked up)": "T1 sequence (P54839 whole entry, looked up)"}}}
{"protein": "B1", "values": [{"measurement": "mevalonate production in E. coli, improvement", "setting": "[1]", "value": "reduced somewhat (to 7-fold) when the number of possible interactions was further increased"}, {"measurement": "mevalonate production in E. coli, improvement", "setting": "[2]", "value": "mevalonate production reached a maximum ˜10-fold improvement with 6 possible interactions"}]}
